In the assay the target is T1, C-TRAF2 (residues 262 to 501 of human TRAF2) (Homo sapiens, UniProt Q12933).
T1 construct: C-TRAF2 (residues 262-501) was purified and coupled to a sensor chip CM5; initiator Met added before residue 262 (N); 6xHis (C); made in house; host or cells: baculovirus in 'Tini' cells (insect cells), vector pAcSG2
T1 sequence (Q12933 262-501): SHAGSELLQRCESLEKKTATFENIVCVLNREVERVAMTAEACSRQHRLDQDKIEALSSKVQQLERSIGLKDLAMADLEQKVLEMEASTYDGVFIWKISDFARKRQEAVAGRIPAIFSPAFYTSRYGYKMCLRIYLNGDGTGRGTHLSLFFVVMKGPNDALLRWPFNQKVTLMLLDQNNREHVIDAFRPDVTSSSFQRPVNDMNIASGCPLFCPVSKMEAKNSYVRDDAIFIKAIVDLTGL
Kind of assay: BIAcore surface plasmon resonance binding to immobilised C-TRAF2. The conditions noted are these: C-TRAF2 coupled to CM5 chip, read-out: Kd of the interaction between N-TRADD and C-TRAF2. The procedure: C-TRAF2 and N-TRADD binding studies: The affinity of wild-type N-TRADD and C-TRAF2 was measured by surface plasma resonance using a BIAcore 2000 system (Pharmacia Biosensor AB). C-TRAF2 (residues 262-501) was purified and coupled to a sensor chip CM5 by amine coupling at pH=5.0 to get about 800, 1500 and 5500 response units on three different flow cells. A constant flow (20 μL/min) of purified N-TRADD protein in 10 mM Hepes, pH=7.4, 150 mM NaCl, 3.4 mM EDTA and 0.05% P20 surfactant at 8 different concentrations from 650 μM to 84 μM was applied over the protein coupled chip for 2 min to analyze the association. Binding constants were obtained from the BIAevaluation software.
The ^1H-^15N HSQC of N-TRADD was used as a tool to map the binding interface with C-TRAF2, since the chemical shifts of contact residues will be perturbed upon complex formation. […] The C-TRAF2 (residues 262-501) used in the instant HSQC titration experiment (at 120 μM) is also a trimer, as determined by size exclusion chromatography. […] N-TRADD Mutagenesis and interactions between C-TRAF2 and N-TRADD: In order to further characterize the amino acids in N-TRADD that are involved in C-TRAF2 recognition, site directed mutants of N-TRADD were prepared and evaluated for their ability to bind C-TRAF2. […]
The affinity of N-TRADD mutants to C-TRAF2 was measured by BIAcore. […]
For orientation: SPR reads the build-up and loss of mass on a sensor chip optically.

B1: N-TRADD: N-terminal domain (amino acid residues 1-169, SEQ ID NO:1) of human TNFR-1 associated death domain protein (protein)
chain: MAAGQNGHEWVGSAYLFVESSLDKVVLSDAYAHPQQKVAVYRALQAALAESGGSPDVLQMLKIHRSDPQLIVQLRFCGRQPCGRFLRAYREGALRAALQRSLAAALAQHSVPLQLELRAGAERLDALLADEERCLSCILAQQPDRLRDEELAELEDALRNLKCGSGAR
For the molecule B1, the equilibrium dissociation constant (Kd) is 6 µM.

The term Kd denotes the constant that tells how readily two partners part at equilibrium.

The record behind these values is patent US7460961B2, “N-TRADD active site and uses thereof” (Genetics Institute, LLC, priority 2000, dated 2008).
